Test results taken from PMC3060684.
Numbering of substitutions follows the chain as printed. Where two headings read alike, the source gives them in different places.

B1: LumM (LumMs/LumMa) (dsDNA)
DNA 1: TAAGTAGATATTGAAAGCAAGATTGAAAAAAATGTTG
DNA 2: AATCAAACATTTTTTTCAATCTTGCTTTCAATATCT
B2: LumMD (LumMDs/LumMDa) (dsDNA)
DNA 1: B1 DNA 1 with A8C
DNA 2: B1 DNA 2 with T34G
B3: LumFD (LumFDs/LumFDa) (dsDNA)
DNA 1: AAGTGAAAAAAAAAAGAGCTATTCGAAGGG
DNA 2: GATTCCCTTCGAATAGCTCTTTTTTTTTTC
B4: LumF (LumFs/LumFa) (dsDNA)
DNA 1: B3 DNA 1 with C19A
DNA 2: B3 DNA 2 with G16T

How the values were obtained:
GST-CCA1 [1] = molecular target: T1, GST-CCA1 (Arabidopsis thaliana, UniProt P92973 1-608); test: EMSA
GST-CCA1 [2] = molecular target: T1, GST-CCA1; test: EMSA; remark: listed apart in the source

T1 sequence (P92973 whole entry): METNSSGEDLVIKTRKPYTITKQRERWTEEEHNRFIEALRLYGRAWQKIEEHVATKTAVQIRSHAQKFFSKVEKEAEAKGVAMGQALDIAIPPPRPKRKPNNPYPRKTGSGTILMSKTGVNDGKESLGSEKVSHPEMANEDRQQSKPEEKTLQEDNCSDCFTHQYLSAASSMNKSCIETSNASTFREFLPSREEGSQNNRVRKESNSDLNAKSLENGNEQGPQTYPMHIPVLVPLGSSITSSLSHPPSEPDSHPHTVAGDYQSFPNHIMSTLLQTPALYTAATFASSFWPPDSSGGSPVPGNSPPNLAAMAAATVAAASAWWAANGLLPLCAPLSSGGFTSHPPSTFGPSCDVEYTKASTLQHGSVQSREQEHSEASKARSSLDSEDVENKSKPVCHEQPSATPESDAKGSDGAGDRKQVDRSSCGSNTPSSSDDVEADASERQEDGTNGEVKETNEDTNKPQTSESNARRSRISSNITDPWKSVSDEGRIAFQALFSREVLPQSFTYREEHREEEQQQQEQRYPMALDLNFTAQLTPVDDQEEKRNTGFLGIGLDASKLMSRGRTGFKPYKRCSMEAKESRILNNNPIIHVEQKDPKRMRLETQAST

Binder	binding result (GST-CCA1 [1])	binding result (GST-CCA1 [2])
B1	binds	–
B2	–	no binding
B3	–	no binding
B4	binds	–
